Data as given in the nanobody polyreactivity screen of Harvey et al. (2022).

Experiment: yeast display, Sf9 membrane polyspecificity reagent, FACS + sequencing; frameworks hold sequencing errors
Outline: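 In a synthetic yeast display library (Saccharomyces cerevisiae BJ5465), nanobody expression was induced with galactose for 36–48 hours. FACS gates were set low and high (top ~1%) using anti-HA fluorescence for expression and streptavidin fluorescence for binding of the Sf9 membrane reagent. Each polyreactivity label is drawn from the gate of origin.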

For “QVQIVESGGGLVQAGGSLRLSCAASGFIFGIYDMGWYRQAPGKERELYADSVKGRFTISRDNAKNTVYLQMNSVKPEDTAVYYCNRAQGVHTYVYRYGYWGQGTQVTESS”, the “polyreactivity (PSR sort gate)” value was “low polyreactivity”.
For “QVQLVESGGGLVQAGGSLRLSCAASGRIFYHNAMGWYRQAPGKERELVAAITWSGGSTYYADSVKGRFTISRDNAKNTVYLQMNSLKTDDTAVYYCNALSNRYYSKLGSWGQGTQVTVSS”, the “polyreactivity (PSR sort gate)” value was “high polyreactivity”.
With “QVQLVESGGGLVQAGGSLRISCAPSGSTSVQYAMGWYRQAPGKERELVAAIDRSGGSTSYADSVKGRFTISRDNAKNTVYLQMNSLKPEDTAVYYCNADPVRSTYSYDYWGQGTQVTVSS” the “polyreactivity (PSR sort gate)” value was “low polyreactivity”.
With “QVQLVESGGGLVQAGGSLRLTCAASGSTFRWYAMGWYRPAPGKERELVAVITSGASTNYADSVKGRFTISRDNAKNTVYLQMNSLKPEDTAVYYCNRVPYFRWKYGYWGQGTQVTVSS” the “polyreactivity (PSR sort gate)” value was “high polyreactivity”.
With “QVQLVESGGGLVQAGGSLRLSCAASGFNFDYYAMGWYRPAPGKVRELVAAITSRGGSTYYADSVKGRFTISRDNAKTTVYLQMNILKPEDTAVYYCSALRRSAEYNYWGQGTQVTVSS” the “polyreactivity (PSR sort gate)” value was “high polyreactivity”.
With “QVQLLESGGGLVQAGGSHRLSCAASGIIFQWNVMGWYRQAPGKERELVASITSGSSTHYADSVKVRFTISRDNAKNSVYLQMNSLKPEDTAVYYFAADGALRAEYDVEIEYDYWGQGTQVNVSS” the “polyreactivity (PSR sort gate)” value was “low polyreactivity”.
For “QVQLVESGGGLVQAGGSLRLSCAASGFTLGWYAMGWYRQAPGKERELVASINWDGGSTYYADSVKGRFTISRDNAKNTVYLQMNSLKPEDTAVYYCNAVNKWFPKVGYNYWGQGTQVTVSS”, the “polyreactivity (PSR sort gate)” value was “high polyreactivity”.
In the case of “QVQLVESGGGLVQAGGSLRLSCAASGRTFAVYAMGWYRQAPGKERELVAAITRSGGSTYYADSVKGRFTISRDNAKNTVYLQMNSLKPEDTAVYYCAAGGQARHDYWGQGTQVTVSS”, the “polyreactivity (PSR sort gate)” value is reported as “low polyreactivity”.
With “QVQLVESGGGLVQAGGSLRLSCAASGSTFVYAMAWYSQAPGKERELVAAITTGDSTYYADSVKGRFTISRDNAKNTVYLQMNSLKPEDTAVYYCAAQWYTRYGEYGYWGQGTQVTVSS” the “polyreactivity (PSR sort gate)” value was “low polyreactivity”.
With “QFQLVESVGCLVQAGGSLRLSCAASGILFSWYAMGWYRQPPGKERELVAAISKGGGSTYYADSVKGRFTISRDNAKNTVYLQMNSLIPEDTAVYYCAADSSYGYGYWGQGTQVTVSS” the “polyreactivity (PSR sort gate)” value was “high polyreactivity”.
In the case of “QVQLVESGGGLVQAGGSLRLSCAASGFTFDTNAMGWYRQAPGKERELVAAISWGGDTTYYADSVKGRFTISRDNAKNTVYLQMNSLKPEDTAVYYCNVYWYDWWGYDYWGQGTQVTVSS”, the “polyreactivity (PSR sort gate)” value is reported as “high polyreactivity”.
For “QVQLVESGGGLVQAGGSLRLSCAASGFTFPDYAMGWYRQAPAKERELVAVITSGGSTYYADSVKGRFTISRDNAKNTVYLQMNSLKPEDTAVYYCATDFWDDDVEQRYDYWGQGTQVTVSS”, the “polyreactivity (PSR sort gate)” value was “low polyreactivity”.
For “QVQLVESGGGLVQAGGSLRLSCAASGRIFWHNAMGWYRQAPGKERELVAAITGGGSTYYADSVKGRFTISRDNAKNTVYLQMNSLKPEDTAVYYCATLGSLRYYWPGYDYWGQGTQGTVSS”, the “polyreactivity (PSR sort gate)” value was “high polyreactivity”.
In the case of “QVHLVESGGGLVQAGGSLRLSCAASGRTFIYYAMGWYRQAPGKERELVASITTGGRTYYADSVKGRFTISRDNAKNTVYLQMNSLKPEDSAVYYCAAEPHFFWYYHYVYGEHDYWGQGTQVTVSS”, the “polyreactivity (PSR sort gate)” value is reported as “high polyreactivity”.
With “QVQLVESGGGLVQAGGSLRLSCAASGRSFYTNVMGWYRQAPGKERELVAAISSAGTTYYADSVKGRFTISRDNAKNTVYLQMNSLKPVDSEVYYCAADQVAYYGFDYWGQGTQVTVST” the “polyreactivity (PSR sort gate)” value was “low polyreactivity”.
In the case of “HVQLVESGGGLVQAGGSLRLSCAASGFTFANNAMGWYRQAPRKERELVAAISRSGGSTYYADSVKGRFTISRDNAKNTVYLQMNSLKPEDTAVYYCAVYNRPYKEYGYNYWGQGTQVTVSS”, the “polyreactivity (PSR sort gate)” value is reported as “high polyreactivity”.
With “QVQLVESGGGLVQAGGSLSLSCAASGSSFGGYTMGWYRQAPGKERELVAAISRRGGNTYYADSVKGRFTISRDNAKNTVYLQMNSLNPEETAVYYCAVRWPSARIPVKLDYWGQGTQVTVSS” the “polyreactivity (PSR sort gate)” value was “high polyreactivity”.
In the case of “QVQLVESGGGLVQAGGSLRLSCAASGLTFAYNAMGWYRQAPGKARQLVASINWSDSSTYYADSVKGRFTISRDNAKNTVYLQMHSLKPEDTEVYYCAADAYYVGQGYDYGGQGTQVTVSS”, the “polyreactivity (PSR sort gate)” value is reported as “low polyreactivity”.
For “QVQLVESGGGLVQAGGSLRLSCAASGSILVNAIGWYRQAPGKEREFVAAISSGGSTKYADSVKGRFTMSRDNATNTDYLLMNSLKPEDTEVYYCAARVVTSRLSGGTTHPFILYYWGQGTQVTVSS”, the “polyreactivity (PSR sort gate)” value was “high polyreactivity”.
In the case of “KVQLVESGGGIVQAGGSLRLSCAASGSTFVRNAMGWYRQAPGKERELVAGITFGGGSTYYADSVKGRFTISRDNAKNTVYLQMNSLKAEDTAVYFCAKRDYSPWPAAGYPYDYDYWGQGTQVTVSS”, the “polyreactivity (PSR sort gate)” value is reported as “low polyreactivity”.
With “QVQLVESGGGLVQAGGSLRLSCAASGSIFNTYVMGWYTQAPGKERELVAAITSSGGRTYYADSVKGRFTISRDNAKNTVYLQMNSLNPEDTAVYYCNTAQRWVGRNDYWGQGTQVTVSS” the “polyreactivity (PSR sort gate)” value was “high polyreactivity”.
For “QVQLVESGGGLVQAGGSLRLSCAASGFIFDLYAMGWSRQAPGKERELVAVISFDGGSTYYADSVKGRFTISRDNAKNTVYLQMNSLKPEDTAVYYCNTYAGLVSPSDLYDYWGQGTQVTVSS”, the “polyreactivity (PSR sort gate)” value was “low polyreactivity”.
In the case of “QVQLVESGGGLVQAGGSHRLSSAASGTTFYGNAMGWYRQAPGKERELVAAISQGGGRTYYADSVKGRFTISRDIAKNTVYLQMISLKPEDTAVYYCAADVWWYRLDFDYWGQGTQVTVSS”, the “polyreactivity (PSR sort gate)” value is reported as “high polyreactivity”.
For “KVQLVESGGGLVQAGGSLRLSCAASGINCYYYAMGWYRQAPGKERELVAVISSSGGRTYYADSVKGRFTISRDNSKNTVYLQMNSLKPEDTAVYYCAARGYGATYDYWGQGTQVTVSS”, the “polyreactivity (PSR sort gate)” value was “high polyreactivity”.
In the case of “QDQLVESGGGLVQAGGSLRLSCASSGITIATNAMGWSRQAPGKERELVAAISWSGGSTYYADSVKGRFTISRDNAKNTVFLQMNSLKPEDTAVYYCATGYSVWYDYWGQGTQVTVSS”, the “polyreactivity (PSR sort gate)” value is reported as “low polyreactivity”.
In the case of “QVQLVESGGGIVQAGGSLRLSCAASGRTFKWNAMGWYRQAPGKEREFVATISYSGGSTYYADSVKGRFTISRDIAKNSVYLQMKSLKPEDSAVYYCAAGSPYRFWHRFDYWGQGTQVTVSS”, the “polyreactivity (PSR sort gate)” value is reported as “high polyreactivity”.
In the case of “QVQLVESGGGLVQAGGSLRLSCAASGITFFNYAMGWYRQAPGKERELVAAISGGSTYYADSVKGRFTISRDNAKNTVYLQMNSLKPEDTAVYYCAARVASKYLVYRKRPSRFDYWGQGTQVTVSS”, the “polyreactivity (PSR sort gate)” value is reported as “low polyreactivity”.
In the case of “QVQLVESGGGLVQAGGSLRLSCAASGRIFRVYAMGWYRQAPGKERELVASISSGGSTNYADSVKGRFTISRENAKNTVYLQMNSLKPEDTAVYYCAADYWYRLFWYYGAPLDYWGQGTQVTVSS”, the “polyreactivity (PSR sort gate)” value is reported as “low polyreactivity”.
For “QVQLVESGGGLVQAGGSLRLSCAASGFIFFTYAMGWYRQAPGKERELVAAISSRGGSTYYADSVKGRFTISRDNAKNTVYLQMNSLKPEDTAVYYCADRTRRRRGEYDYWGQGTQVTVSS”, the “polyreactivity (PSR sort gate)” value was “high polyreactivity”.
In the case of “QVQLVESGGGLVQAGGSLRLSCAASGSIFPENVMGWYRQAPGKERELVAAISWSGGSTYYADSVKGRFTISRDNAKNTVYLQMNSLKPEVTAVYYCNRVPSWRIDYDYWGQGTQVTVSS”, the “polyreactivity (PSR sort gate)” value is reported as “low polyreactivity”.
For “QVQLVESGGGLDQAGGSLRLSWAASGSTFTINVMGWYRQAPGKERELVAAINGGGRTNYADSVKGRFTISRDNAKNTVYLQMNSLKPEDTAVYYCAADGLSNVRQMDFWGQGTQVTVSS”, the “polyreactivity (PSR sort gate)” value was “low polyreactivity”.
In the case of “QVQLVKSGGGLVQAGGSLRLSCAASGSTFRYYVMGWYRQAPGKERELVATISRGGITKYADSVKGRFTSSRDNAKNTVYLQMHSLKPEDTAVYYCNTRGSRQGKFDYWGQGTQVTVSS”, the “polyreactivity (PSR sort gate)” value is reported as “high polyreactivity”.
In the case of “QVQLVESGGGLVQAGGSLRLSCAASGYTFSLYAMGWYRQAPGKERELVAAISSGDRTFYADSVKGRFTISRDNAKNTVYLQMNSLKPEDTAVYYCAARRYYVASIYRYDSWGQGTQVTVSS”, the “polyreactivity (PSR sort gate)” value is reported as “high polyreactivity”.
For “PVQLVESGGGLVQAGGILRLSCAACGRIFQRNAMGWYRQAPGKERELVATITSRGGSTYYADSVKGRFTISRDNAKNTVYLQMNSLKPEDTAVYYCAADPRRYRGFGYVYGGFYYWGQGTQVTVSS”, the “polyreactivity (PSR sort gate)” value was “low polyreactivity”.
In the case of “QVQLVESGGGLVQAGGSLRLSCAASGSIFRDNTMGWYRQAPGKERELVAAISYSGGGTYYADSVKGRVTISRDNAKNTVYLQMNSLKPEDTAVYYCAKRTYPWYYREIPYGYWGQGTQVTVSS”, the “polyreactivity (PSR sort gate)” value is reported as “high polyreactivity”.
In the case of “QVQLVESGGGLVQAGGSLRLSCAASGSTFAVYSMGWYTQAPGKERELVADSSYSGGSTYYADSVKGRFTISRDNAKNTVYLQMNSLIPEDTAVYYCAADWYDWLSTYDDWGQGTQVTVSS”, the “polyreactivity (PSR sort gate)” value is reported as “low polyreactivity”.
With “QVQLVESGGGLVQAGGSLRLSCAASGSTFTTNAMGWYRQAPGKERELVAAISWSGTTTYYADSVKGRFTISRDNAKNTVYLQMNSLKPEDTAVYYCAAQVVSGTVAYLDFGYWGQGTQVTVSS” the “polyreactivity (PSR sort gate)” value was “low polyreactivity”.
In the case of “QVQLVESGGGLVQAGGSLRLSCAASGITFDKYALGWYRQAPGNERELVAAISGSDGSTYYADSVKGRFTISRDNAKNTVYLQNNSLKPEDTAVYYCAAESEYAGTYEYDYWGQGTQVTVSS”, the “polyreactivity (PSR sort gate)” value is reported as “low polyreactivity”.
For “QVQLVESGGGLVQAGRSLRLSCAASGRTFVYYAMGWYRQAPGKERELVATISSSDSTNYADSVKGRFTISRDNAKNTVYLQMNSLKPEDTAVYYCAAGPKGGGYYDPFDYWGQGTQVTVSS”, the “polyreactivity (PSR sort gate)” value was “low polyreactivity”.
For “QVQLVESGGGLVQAGGSLRLSCAASGRTFAYYAMGWYKQAPGKERELVAAISWSGGSTYYADSVKGRFTISRDNAKNTVYLQMNSLKPEDTAVYYCAARRYGVPPTYDYWGQGTQVTVSW”, the “polyreactivity (PSR sort gate)” value was “high polyreactivity”.
With “QVQLVESGGGLVQAGGSLRLSSAASGFTFRYYAMGWYRQAPGKERELVAAISWSGGRTYYADSVKGRFTISRDNAKYTVYLQMNILKPEDTAVYYCAADGYPYFYGDFDYSGQGTQVTVSS” the “polyreactivity (PSR sort gate)” value was “high polyreactivity”.
In the case of “QVQLVESGGGLVQAGGSLRLSCAASGSIFSYYAMGWYRQAPGKERELVAAITVRGGSTYYADSVKGRFTISRDNAKNTVYFQMNSLKPEDTAVYYCAADWLDESFSYGPYYYWGQGTQVTVSS”, the “polyreactivity (PSR sort gate)” value is reported as “low polyreactivity”.
For “QVQLVESGGGLVQAGGSLRLSCAASGSTFYNYAMGWYRQAPGKERELVAAISSSGGRTYYADSVKGRFTISRDNAKNTVYLQMNSLKPEDTAVYYCAASGRKNGMNYWGQGTQVTVSS”, the “polyreactivity (PSR sort gate)” value was “high polyreactivity”.
